Reference: publication doi:10.1101/2020.03.04.976142
One block for each substance: values may come before it.

How the values were obtained:
Test in all cases: ITC
AnkG exZZUD (rat) = AnkG exZZUD (rat) (UniProt O70511)
[1] = target: AnkB exZZU T1324D (human)
[2] = target: AnkB exZZU R1029E (human)
AnkB exZZU F968A (human) = target: AnkB exZZU F968A (human)
[3] = target: AnkB ZU5N-ZU5C-UPA-DD tandem (ZZUD, aa 966-1535) (human)
[4] = target: AnkB exZZU (extension-ZU5N-ZU5C-UPA, aa 951-1443) (human)
AnkB exZZU I964Q (human) = target: AnkB exZZU I964Q (human)

UniProt O70511, sequence (O70511 whole entry): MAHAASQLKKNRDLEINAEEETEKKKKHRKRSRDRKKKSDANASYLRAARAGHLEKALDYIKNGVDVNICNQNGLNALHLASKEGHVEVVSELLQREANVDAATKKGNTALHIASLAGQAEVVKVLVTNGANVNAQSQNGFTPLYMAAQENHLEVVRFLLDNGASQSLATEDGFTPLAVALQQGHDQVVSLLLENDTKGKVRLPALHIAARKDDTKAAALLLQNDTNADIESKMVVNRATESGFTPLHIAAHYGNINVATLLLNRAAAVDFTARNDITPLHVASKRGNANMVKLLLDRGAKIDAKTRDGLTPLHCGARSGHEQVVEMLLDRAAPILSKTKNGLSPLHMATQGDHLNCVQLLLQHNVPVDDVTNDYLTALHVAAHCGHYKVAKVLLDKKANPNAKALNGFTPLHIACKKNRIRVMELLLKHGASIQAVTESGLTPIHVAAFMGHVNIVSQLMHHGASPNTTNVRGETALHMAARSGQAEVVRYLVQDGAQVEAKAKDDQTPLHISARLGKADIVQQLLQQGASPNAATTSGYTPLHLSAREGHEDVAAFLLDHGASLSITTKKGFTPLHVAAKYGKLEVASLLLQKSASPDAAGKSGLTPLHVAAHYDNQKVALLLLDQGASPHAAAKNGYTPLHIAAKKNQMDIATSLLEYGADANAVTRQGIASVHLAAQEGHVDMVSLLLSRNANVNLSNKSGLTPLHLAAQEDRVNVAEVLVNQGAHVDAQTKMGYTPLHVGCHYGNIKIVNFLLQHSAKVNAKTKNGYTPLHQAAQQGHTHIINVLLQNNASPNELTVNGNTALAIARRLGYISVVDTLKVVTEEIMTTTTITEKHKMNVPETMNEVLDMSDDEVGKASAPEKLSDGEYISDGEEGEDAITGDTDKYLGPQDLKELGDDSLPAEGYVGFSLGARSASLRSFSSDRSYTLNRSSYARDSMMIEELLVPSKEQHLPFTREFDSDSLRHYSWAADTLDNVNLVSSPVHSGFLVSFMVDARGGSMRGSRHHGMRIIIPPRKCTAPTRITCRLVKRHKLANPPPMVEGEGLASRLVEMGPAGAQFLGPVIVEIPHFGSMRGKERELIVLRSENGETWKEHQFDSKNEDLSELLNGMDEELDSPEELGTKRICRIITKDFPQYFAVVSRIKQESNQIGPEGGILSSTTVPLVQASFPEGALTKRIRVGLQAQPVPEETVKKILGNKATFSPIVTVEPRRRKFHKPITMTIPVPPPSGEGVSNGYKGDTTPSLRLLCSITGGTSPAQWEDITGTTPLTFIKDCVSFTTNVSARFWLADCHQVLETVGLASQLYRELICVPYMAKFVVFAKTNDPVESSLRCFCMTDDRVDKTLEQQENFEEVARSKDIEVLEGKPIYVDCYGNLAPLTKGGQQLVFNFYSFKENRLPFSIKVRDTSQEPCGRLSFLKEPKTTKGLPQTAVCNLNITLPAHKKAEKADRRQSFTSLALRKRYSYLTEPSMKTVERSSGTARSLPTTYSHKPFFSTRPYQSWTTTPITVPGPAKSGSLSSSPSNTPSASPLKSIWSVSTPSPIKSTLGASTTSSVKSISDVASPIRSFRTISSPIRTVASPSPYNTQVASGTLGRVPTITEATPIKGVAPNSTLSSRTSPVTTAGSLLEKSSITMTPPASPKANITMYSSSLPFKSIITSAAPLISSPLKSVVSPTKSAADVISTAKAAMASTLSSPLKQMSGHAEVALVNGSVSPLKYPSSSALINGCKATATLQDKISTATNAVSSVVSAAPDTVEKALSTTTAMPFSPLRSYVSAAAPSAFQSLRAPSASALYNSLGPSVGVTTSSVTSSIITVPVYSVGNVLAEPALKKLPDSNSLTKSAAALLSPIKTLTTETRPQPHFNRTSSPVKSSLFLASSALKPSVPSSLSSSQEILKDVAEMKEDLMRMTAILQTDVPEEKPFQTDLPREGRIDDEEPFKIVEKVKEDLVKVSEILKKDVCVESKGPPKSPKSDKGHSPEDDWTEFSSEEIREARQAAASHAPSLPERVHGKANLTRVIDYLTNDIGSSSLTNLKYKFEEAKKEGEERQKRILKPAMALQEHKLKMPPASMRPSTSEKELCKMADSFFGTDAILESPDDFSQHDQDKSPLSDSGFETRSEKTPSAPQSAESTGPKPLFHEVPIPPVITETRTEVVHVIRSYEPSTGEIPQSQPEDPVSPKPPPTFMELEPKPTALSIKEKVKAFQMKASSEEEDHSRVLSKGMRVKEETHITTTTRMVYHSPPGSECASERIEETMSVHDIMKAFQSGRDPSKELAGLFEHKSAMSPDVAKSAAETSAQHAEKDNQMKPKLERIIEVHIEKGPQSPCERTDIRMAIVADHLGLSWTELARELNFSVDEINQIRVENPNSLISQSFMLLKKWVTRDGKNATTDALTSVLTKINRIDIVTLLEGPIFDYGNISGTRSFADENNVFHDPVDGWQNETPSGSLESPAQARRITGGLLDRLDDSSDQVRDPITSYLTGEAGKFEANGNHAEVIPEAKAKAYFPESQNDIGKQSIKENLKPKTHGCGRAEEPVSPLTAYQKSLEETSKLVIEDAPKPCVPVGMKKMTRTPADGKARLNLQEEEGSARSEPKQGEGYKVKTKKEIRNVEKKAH

fold stronger binding than AnkG ZZUD without the extension (AnkG exZZUD (rat)): > 10 fold
Substance: β2-spectrin R13-16 (from UniProt Q62261 1-2363) (domain or fragment)

fold decrease of binding against wild-type AnkB exZZU [1]: 5 fold
Substance: β4-spectrin spectrin repeats 13-15 (R13-15) (domain or fragment)

fold decrease of binding against wild-type AnkB exZZU [2]: 5 fold
fold decrease of binding against wild-type AnkB exZZU (AnkB exZZU F968A (human)): > 10 fold
Kd [3]: 4.9 µM
Kd [4]: 0.2 µM
fold decrease of binding against wild-type AnkB exZZU (AnkB exZZU I964Q (human)): 4 fold
Substance: β2-spectrin spectrin repeats 13-15 (R13-15) (domain or fragment)
